Results reported in PMC10892419, “UHPLC-MS/MS Assay for Quantification of Legubicin, a Novel Doxorubicin-Based Legumain-Activated Prodrug, and Its Application to Pharmacokinetic and Tissue Distribution Studies” (Molecules, 2024).
Residues, ends and D or L forms follow the SMILES beside them. *: point of attachment. Doxorubicin(3'-N) = COc1cccc2c1C(=O)c1c(O)c3c(c(O)c1C2=O)C[C@@](O)(C(=O)CO)C[C@@H]3O[C@H]1C[C@H](N*)[C@H](O)[C@H](C)O1; Hexanoyl(6-maleimido) = O=C1C=CC(=O)N1CCCCCC(=O)*

Legend:
[1] = cited from earlier work
[2] = acute toxicological assessment in dogs; ref unpublished preclinical studies at the authors' institution; cited from earlier work
[3] = Tissue-distribution study after i.v. legubicin or doxorubicin; settings: HT1080 tumor-bearing mice
Protocol: The mixture was vortexed for 3 min, and then centrifuged at 22,000× g at 4 °C for 10 min. A final analysis was conducted by injecting 5 µL supernatant into a UHPLC-MS/MS system. Mouse plasma samples were treated in the same way as the rat plasma samples, except for protein precipitation, with 200 µL of 5 pmol/mL IS working solution and injection of 2 µL of supernatant for analysis.
Each legubicin administration group corresponded to a sampling time-point (4, 16, 32, 48, 96, 168, and 240 h after administration). […] Blood samples and tumor, heart, and kidney tissues were collected at the sampling time points (4, 16, 32, 48, 96, 168, and 240 h after dosing). In addition, liver, spleen, lung, stomach, small intestine, gonads, brain, skeletal muscle, and skin were also collected at 4, 32, 96, and 240 h post-dose time points in the legubicin administration group. All whole-blood samples were processed according to the same processing steps, described above, for rat whole-blood samples.
The analysis software (Version 1.5.2, AB Sciex, Vaughan, ON, Canada) was applied to data acquisition and quantification. Pharmacokinetic parameters were calculated with WinNonlin Phoenix (v6.4, Pharsight, Mountain View, CA, USA) with the noncompartmental method, and were presented as mean ± SD (%CV). The “Best fit” strategy in the WinNonlin Phoenix was used for the calculation of elimination half-life and the selection of the elimination phase. Graphs were plotted by GraphPad Software (GraphPad Prism 8.0.2; GraphPad Software, Inc., La Jolla, CA, USA).

[4] = legubicin vs equimolar doxorubicin (9.05 µmol/kg i.v.)

What does the source list for `COc1cccc2c1C(=O)c1c(O)c3c(c(O)c1C2=O)C[C@@](O)(/C(CO)=N/NC(=O)CCCCCN1C(=O)C=CC1=O)C[C@@H]3O[C@H]1C[C@H](N)[C@H](O)[C@H](C)O1` [DOXO-EMCH, doxorubicin (6-maleimidocaproyl) hydrazone]?
AUC ([1]; doses equivalent to 2.5 mg/kg of doxorubicin): 536 µM·h; clearance (CL) ([1]; published value): approximately 7.9 mL/h/kg

Which “MTD relative to doxorubicin” value [2] does the source give for `COc1cccc2c1C(=O)c1c(O)c3c(c(O)c1C2=O)C[C@@](O)(C(=O)CO)C[C@@H]3O[C@H]1C[C@H](NC(=O)[C@H](CC(C)C)NC(=O)[C@H](CC(N)=O)NC(=O)[C@H](C)NC(=O)[C@H](C)NC(=O)CCCCCN2C(=O)C=CC2=O)[C@H](O)[C@H](C)O1` [Legubicin] ({Hexanoyl(6-maleimido)}-AANL-{Doxorubicin(3'-N)}) here?
Its value is “tenfold increase compared to doxorubicin”.

What about the “maximum tolerated dose (MTD)” value [2] of the same compound?
The value was 15 mg/kg.

And the “T/P Ratio of doxorubicin, kidney” value ([3]; i.v. 9.05 µmol/kg of the labelled drug, n = 6, tissue-to-plasma ratio)?
The value was 28.9.

What about the “fold decrease in doxorubicin exposure (AUClast) in the heart” value [3, 4] of the same compound?
The value was 3.3 fold.

What about the “fold decrease in doxorubicin exposure (AUClast) in the kidney” value [3, 4] of the same compound?
The value was 3.5 fold.

What about the “fold increase in tumor doxorubicin exposure (AUClast)” value [3, 4] of the same compound?
The value was 1.8 fold.
